{"source": "paper PMC6804660", "about": "“Melatonin enhances salt tolerance by promoting MYB108A-mediated ethylene biosynthesis in grapevines”", "binders": {"B1": {"name": "mutant MBS competitor (mMBS) (dsDNA)", "DNA 1": "CATGTCCCTGTGTACATATCGTAAGGCA", "DNA 2": "TGCCTTACGATATGTACACAGGGACATG"}, "B2": {"name": "ACS1 promoter MBS probe (dsDNA)", "DNA 1": "CATGTCCCTGTGAACCTAACGTAAGGCA", "DNA 2": "TGCCTTACGTTAGGTTCACAGGGACATG"}, "B3": {"name": "unlabeled MBS competitor (dsDNA)", "DNA 1": "CATGTCCCTGTGAACCTAACGTAAGGCA", "DNA 2": "TGCCTTACGTTAGGTTCACAGGGACATG"}}, "key": {"MYB108A (VviMYB108A) [1]": {"target": "T1, MYB108A (VviMYB108A) (UniProt C3W4Q3 1-306)", "T1 sequence": "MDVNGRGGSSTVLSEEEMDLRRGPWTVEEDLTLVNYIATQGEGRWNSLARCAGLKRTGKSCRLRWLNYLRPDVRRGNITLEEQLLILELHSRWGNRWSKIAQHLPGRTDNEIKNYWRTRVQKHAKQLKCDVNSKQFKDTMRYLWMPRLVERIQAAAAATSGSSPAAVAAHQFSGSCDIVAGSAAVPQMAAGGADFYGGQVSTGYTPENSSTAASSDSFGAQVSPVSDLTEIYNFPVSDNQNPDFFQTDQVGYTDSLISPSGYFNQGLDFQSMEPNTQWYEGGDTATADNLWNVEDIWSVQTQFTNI", "assay": "competition; unlabeled mutant competitor vs biotin MBS probe (EMSA); EMSA per Thermo Fisher EMSA Kit manual; buffer, salt, pH and temperature not stated", "settings": "protein: recombinant; tags: His"}, "MYB108A (VviMYB108A) [2]": {"target": "T1, MYB108A (VviMYB108A)", "assay": "EMSA; EMSA per Thermo Fisher EMSA Kit manual; buffer, salt, pH and temperature not stated", "settings": "protein: recombinant; tags: His; label: biotin"}, "MYB108A (VviMYB108A) [3]": {"target": "T1, MYB108A (VviMYB108A)", "assay": "competition; increasing unlabeled competitor vs biotin MBS probe (EMSA); EMSA per Thermo Fisher EMSA Kit manual; buffer, salt, pH and temperature not stated", "settings": "protein: recombinant; tags: His"}}, "data": [{"binder": "B1", "values": [{"measurement": "binding result", "setting": "MYB108A (VviMYB108A) [1]", "value": "no binding"}]}, {"binder": "B2", "values": [{"measurement": "binding result", "setting": "MYB108A (VviMYB108A) [2]", "value": "binds"}]}, {"binder": "B3", "values": [{"measurement": "binding result", "setting": "MYB108A (VviMYB108A) [3]", "value": "binds"}]}]}
